Data on 1 substance can be found in article PMC12098658.

Assay [1] concerns the target GFP-JMY WH2#1 (aa841-883) (Mus musculus) (UniProt Q9QXM1). Briefly: co-IP; as a9 but lysate/antibody mixture with 2 µM Ca2+; actin CoIP/GFP IP ratio as percent difference from the Ca2+-free (1 mM EGTA) condition.
In assay [2] the target is GFP-JMY CT (aa821-983) (Mus musculus) (UniProt Q9QXM1). Described as above.
For assay [3] the target is unchanged. In words: co-IP; L929 lysate with GFP-JMY CT, continuous 2 µM Ca2+ for 2 h, compared with continuous EGTA; anti-GFP immunoprecipitation, quantitative immunoblot.

GFP-JMY CT (aa821-983) (Mus musculus), sequence (Q9QXM1 821-983): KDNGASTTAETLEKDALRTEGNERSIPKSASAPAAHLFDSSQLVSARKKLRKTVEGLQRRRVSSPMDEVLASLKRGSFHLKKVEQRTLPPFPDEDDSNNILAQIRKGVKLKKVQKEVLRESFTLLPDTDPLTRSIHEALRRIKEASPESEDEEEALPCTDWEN
GFP-JMY WH2#1 (aa841-883) (Mus musculus), sequence (Q9QXM1 841-883): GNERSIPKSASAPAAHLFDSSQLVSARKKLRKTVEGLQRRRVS

Turning to “endogenous actin from L929 cells (from UniProt P60710 1-375) (natural protein)”, the percent change of coimmunoprecipitated actin with 2 µM Ca2+ against the Ca2+-free condition in assay [1] is under -80%; in assay [2], under -80%; in assay [3], -80%.
